According to US12522656B2, “Anti-G-protein alpha antibody” (CISBIO BIOASSAYS, priority 2020, dated 2026):

Assays:
DOR receptors = biological target: T1, DOR receptors (Homo sapiens, UniProt P41143); experiment: Activation of DOR in HEK293 membranes read by TR-FRET (fluorescent GTP analog + labeled antibody); type: biochemical; settings: SNC162 10 μM; read as increase of FRET signal with DSV36S-d2 / DSV38S-d2
T1 construct: expressed in transfected cells; host or cells: HEK293 membranes
Protocol: (§1) HEK293 membranes expressing the DOR receptor were prepared 4× for a final amount in the wells of 10 μg. The antibodies DSV36S-d2, DSV38S-d2, SC13533-d2 and anti-FLAG-d2 were prepared 4× for a final concentration in the wells of 10 nM.
(§2) The reagents were distributed in the 384-well plates as follows: • 1) 5 μl of DOR membranes was put in each well, • 2) 5 μl of GTPgN-octyl-C2 labeled with europium cryptate or GTPgO-linker-Cy5 was added to each well, • 3) 5 μl of antibody DSV36S or DSV38S or SC13533 or DSV 26S or DSV3S or DSV 39S labeled with d2 or DSV 36S or SC13533 labeled with terbium cryptate was added to each well, • 4) 5 μl of buffer or SNC 162 or GTPgS was added to each well.
(§3) The plates were incubated for 20 h at room temperature before reading the HTRF signal.

Delta Opioid GPCR = Delta Opioid GPCR (Homo sapiens, UniProt P41143); experiment: Activation assay format 2A on Delta Opioid GPCR, agonist/antagonist modulation of TR-FRET signal; settings: fixed SNC162 200 nM; increasing concentration of antagonist; GTPgN-octyl-C2 + DSV36S-d2; FIG. 16B
Chain of Delta Opioid GPCR (P41143 whole entry): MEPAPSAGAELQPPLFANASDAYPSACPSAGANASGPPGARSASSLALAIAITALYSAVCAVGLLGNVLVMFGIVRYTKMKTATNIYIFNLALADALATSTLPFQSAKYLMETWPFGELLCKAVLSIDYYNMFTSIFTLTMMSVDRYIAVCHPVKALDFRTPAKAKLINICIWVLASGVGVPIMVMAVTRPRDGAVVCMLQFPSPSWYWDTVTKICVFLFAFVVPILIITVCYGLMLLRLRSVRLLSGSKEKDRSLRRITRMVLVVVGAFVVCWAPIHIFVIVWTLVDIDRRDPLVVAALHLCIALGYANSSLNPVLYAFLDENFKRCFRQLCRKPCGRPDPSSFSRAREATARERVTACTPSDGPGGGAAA

Gαi1 [1] = biological target: T2, Gαi1 (Homo sapiens, UniProt P63096); experiment: Determination of affinity (Kd) of d2-labeled antibodies for G-protein αi1 by HTRF/FRET; type: binding
T2 sequence (P63096 whole entry): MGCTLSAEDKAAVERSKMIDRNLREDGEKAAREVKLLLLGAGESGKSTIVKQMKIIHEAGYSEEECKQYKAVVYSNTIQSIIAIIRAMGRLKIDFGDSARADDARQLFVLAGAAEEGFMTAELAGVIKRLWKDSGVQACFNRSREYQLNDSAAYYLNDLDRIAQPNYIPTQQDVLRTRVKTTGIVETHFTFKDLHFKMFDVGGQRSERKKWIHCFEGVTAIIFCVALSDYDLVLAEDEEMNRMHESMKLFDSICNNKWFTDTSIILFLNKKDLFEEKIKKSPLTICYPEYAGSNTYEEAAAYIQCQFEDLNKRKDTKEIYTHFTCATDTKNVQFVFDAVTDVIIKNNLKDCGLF
Protocol: These two reagents were prepared in one and the same solution and were preincubated for 30 minutes at room temperature before being distributed in the wells. The antibodies DSV36S-d2, DSV38S-d2 and SC13533-d2 were prepared 4× for final concentrations in the wells between 0.01 and 10 nM depending on the antibodies.
The reagents were distributed in the 384-well plates as follows: • 1) 10 μl of the preincubation mixture of G-protein αi1+buffer only or GTPgS or GDP was put in each well, • 2) 5 μl of the antibody DSV36S or DSV38S or SC13533 labeled with d2 was added to each well, • 3) 5 μl of the anti Twin-Strep-tag-Lumi4 Tb antibody was added to each well.
The plates were incubated for 24 h at room temperature before reading the HTRF signal.
Moreover, the antibody titration curves obtained make it possible to calculate the affinity (Kd) of these different antibodies for the G-protein αi1. This was carried out using the GraphPad Prism software by applying a “one site specific binding” model to the HTRF data.

Gαi1 [2] = biological target: T2, Gαi1; experiment: HTRF competition: unlabeled antibodies versus binding of SC13533-d2 on G-protein αi1; settings: unlabeled antibody 0.01-100 nM; SC13533-d2 10 nM; GTPgS 10 μM
Protocol: These two reagents were prepared in one and the same solution and were preincubated for 30 minutes at room temperature before being distributed in the wells. The cold antibodies DSV36S, DSV38S and SC13533 were prepared 4× for final concentrations in the wells between 0.01 and 100 nM. The antibody SC 13533-d2 was prepared 4× for a final concentration of 10 nM.
The reagents were distributed in the 384-well plates as follows: • 1) 10 μl of the preincubated mixture of G-protein αi1+GTPgS was put in each well, • 2) 5 μl of the unlabeled antibody DSV36S or DSV38S or SC56536 or AM05302PU-N or SC13533 was added to each well, • 3) The plates were incubated for 30 minutes at room temperature, • 4) 5 μl of the anti Twin-Strep-tag-Lumi4 Tb antibody and of the antibody SC13533-d2 were added to each well.
(§4) The plates were incubated for 1 h at room temperature before reading the HTRF signal.

Gαi1 [3] = biological target: T2, Gαi1; experiment: HTRF competition: unlabeled antibodies versus binding of DSV36S-d2 on G-protein αi1; settings: unlabeled antibody 0.001-1 μM; DSV36S-d2 10 nM; GTPgS 100 μM
Protocol: These two reagents were prepared in one and the same solution and were preincubated for 30 minutes at room temperature before being distributed in the wells. The cold antibodies DSV36S, DSV38S, DSV26S, DSV3S, and DSV39S were prepared 4× for final concentrations in the wells between 0.001 and 1 μM. The antibody DSV36S-d2 was prepared 4× for a final concentration of 10 nM.
The reagents were distributed in the 384-well plates as follows: • 1) 10 μl of the preincubated mixture of G-protein αi1+GTPgS was put in each well, • 2) 5 μl of the unlabeled antibodies DSV36S, DSV38S, DSV26S, DSV3S, and DSV39S was added to each well, • 3) The plates were incubated for 30 minutes at room temperature, • 4) 5 μl of the anti Twin-Strep-tag-Lumi4 Tb antibody and of the antibody DSV36S-d2 were added to each well.
as §4

Gα12 = biological target: T3, Gα12 (Homo sapiens, UniProt Q03113); experiment: HTRF selectivity assay, G-protein α overexpressed in HEK293 cells; type: binding; settings: antibody-d2 10 nM, 20 h
T3 construct: host or cells: HEK293
T3 sequence (Q03113 1-381): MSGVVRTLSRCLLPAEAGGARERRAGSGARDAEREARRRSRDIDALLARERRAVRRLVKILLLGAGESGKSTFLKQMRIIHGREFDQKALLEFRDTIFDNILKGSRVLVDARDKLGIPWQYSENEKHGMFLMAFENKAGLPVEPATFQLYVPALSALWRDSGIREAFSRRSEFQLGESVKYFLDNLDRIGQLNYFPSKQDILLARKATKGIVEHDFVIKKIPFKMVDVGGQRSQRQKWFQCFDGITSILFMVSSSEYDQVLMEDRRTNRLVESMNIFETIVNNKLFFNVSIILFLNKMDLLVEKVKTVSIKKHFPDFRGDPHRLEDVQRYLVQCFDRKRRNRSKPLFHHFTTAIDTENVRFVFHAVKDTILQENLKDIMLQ
Protocol: (§5) A solution containing 1 million HEK cells/ml was prepared in OptiMEM medium. Mixtures of plasmids/Lipofectamine containing 150 ng/well of plasmids and 0.375 μl of lipofectamine were prepared in OptiMEM medium 30 minutes before adding them to the 96-well plate with black-bottomed wells.
(§6) Distribution of the reagents in each well of the black microplate suitable for cell culture: • 1) 50 μl per well of polyornithine was incubated for 30 minutes at room temperature and then the solution was withdrawn from each well by aspiration. • 2) 50 μl of the preparation of HEK293 (cell density of 50000 cells per well) was added to each well • 3) 50 μl of the mixture of plasmids coding for a G-protein+lipofectamine was added to each well.
(§7) The microplates were incubated for 24 h at 37° C. and 5% CO2 (regulated stove).
(§8) The antibodies DSV36S-d2, DSV38S-d2 and SC13533-d2 were prepared 4× for a final concentration in the wells of 10 nM.
(§9) The reagents were distributed on the 384-well plates as follows: • 1) The OptiMEM culture medium was aspirated, • 2) 25 μl of buffer or GDP or GTP was added to each well, • 3) 25 μl of buffer was added to each well, • 4) 25 μl of antibody DSV36S-d2 or DSV38S-d2 or SC13533-d2 or anti-FLAG-d2 was added to each well, • 5) 25 μl of anti Twin-Strep-tag-Lumi4 Tb antibody was added to each well.
(§10) The microplates were incubated for 20 h at room temperature before reading the HTRF signal.

Gα13 = biological target: T4, Gα13 (Homo sapiens, UniProt Q14344); experiment: as above; type: binding; settings: antibody-d2 10 nM, 20 h
T4 sequence (Q14344 1-377): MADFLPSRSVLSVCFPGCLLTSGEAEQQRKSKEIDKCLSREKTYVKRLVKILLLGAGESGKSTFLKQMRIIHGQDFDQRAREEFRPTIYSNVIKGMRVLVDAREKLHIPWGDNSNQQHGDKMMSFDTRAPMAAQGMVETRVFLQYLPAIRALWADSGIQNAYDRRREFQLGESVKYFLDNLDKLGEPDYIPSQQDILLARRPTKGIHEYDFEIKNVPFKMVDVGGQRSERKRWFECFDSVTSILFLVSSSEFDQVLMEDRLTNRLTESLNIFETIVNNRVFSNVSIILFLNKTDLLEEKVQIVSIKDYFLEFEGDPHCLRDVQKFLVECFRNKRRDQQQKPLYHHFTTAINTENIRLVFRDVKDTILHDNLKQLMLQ
Protocol: as §5, §6, §7, §8, §9, §10

Gαi1 [4] = biological target: T2, Gαi1; experiment: as above; type: binding; settings: antibody-d2 10 nM, 20 h
Protocol: as §5, §6, §7, §8, §9, §10

Gαi2 = Gαi2 (Homo sapiens, UniProt P04899); experiment: as above; type: binding; settings: antibody-d2 10 nM, 20 h
Chain of Gαi2 (P04899 whole entry): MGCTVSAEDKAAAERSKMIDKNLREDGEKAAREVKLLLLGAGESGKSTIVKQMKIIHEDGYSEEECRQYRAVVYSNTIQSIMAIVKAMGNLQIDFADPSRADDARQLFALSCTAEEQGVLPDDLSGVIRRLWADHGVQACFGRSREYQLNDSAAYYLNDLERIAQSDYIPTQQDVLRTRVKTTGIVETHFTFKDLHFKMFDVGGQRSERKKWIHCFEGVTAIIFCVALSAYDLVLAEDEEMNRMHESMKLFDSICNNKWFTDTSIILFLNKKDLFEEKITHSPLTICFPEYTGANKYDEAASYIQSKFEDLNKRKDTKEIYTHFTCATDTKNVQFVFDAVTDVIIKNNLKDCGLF
Protocol: as §5, §6, §7, §8, §9, §10

Gαi3 = biological target: T5, Gαi3 (Homo sapiens, UniProt P08754); experiment: as above; type: binding; settings: antibody-d2 10 nM, 20 h
T5 construct: host or cells: HEK293
T5 sequence (P08754 whole entry): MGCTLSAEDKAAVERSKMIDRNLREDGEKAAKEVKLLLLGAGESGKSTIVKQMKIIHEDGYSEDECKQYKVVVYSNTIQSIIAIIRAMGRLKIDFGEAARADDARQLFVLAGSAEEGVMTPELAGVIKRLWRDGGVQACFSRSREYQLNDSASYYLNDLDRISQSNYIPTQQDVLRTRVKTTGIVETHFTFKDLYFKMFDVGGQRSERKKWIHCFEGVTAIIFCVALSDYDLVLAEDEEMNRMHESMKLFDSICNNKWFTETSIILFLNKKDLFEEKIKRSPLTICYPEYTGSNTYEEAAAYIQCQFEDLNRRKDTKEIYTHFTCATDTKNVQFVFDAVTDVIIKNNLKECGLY
Protocol: as §5, §6, §7, §8, §9, §10

Gαo = Gαo (Homo sapiens, UniProt P09471); experiment: as above; type: binding; settings: antibody-d2 10 nM, 20 h
Chain of Gαo (P09471 whole entry): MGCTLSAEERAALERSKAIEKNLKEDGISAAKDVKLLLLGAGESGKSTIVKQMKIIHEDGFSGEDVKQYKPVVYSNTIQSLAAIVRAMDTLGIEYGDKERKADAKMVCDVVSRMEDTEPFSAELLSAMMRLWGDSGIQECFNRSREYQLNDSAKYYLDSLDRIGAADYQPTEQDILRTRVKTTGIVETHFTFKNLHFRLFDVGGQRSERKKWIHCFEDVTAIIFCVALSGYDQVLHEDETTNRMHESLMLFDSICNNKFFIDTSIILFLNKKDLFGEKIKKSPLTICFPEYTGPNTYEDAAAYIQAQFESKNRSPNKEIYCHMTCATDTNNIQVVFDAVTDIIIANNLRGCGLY
Protocol: as §5, §6, §7, §8, §9, §10

Gαq = biological target: T6, Gαq (Homo sapiens, UniProt P50148); experiment: as above; type: binding; settings: antibody-d2 10 nM, 20 h
T6 sequence (P50148 1-359): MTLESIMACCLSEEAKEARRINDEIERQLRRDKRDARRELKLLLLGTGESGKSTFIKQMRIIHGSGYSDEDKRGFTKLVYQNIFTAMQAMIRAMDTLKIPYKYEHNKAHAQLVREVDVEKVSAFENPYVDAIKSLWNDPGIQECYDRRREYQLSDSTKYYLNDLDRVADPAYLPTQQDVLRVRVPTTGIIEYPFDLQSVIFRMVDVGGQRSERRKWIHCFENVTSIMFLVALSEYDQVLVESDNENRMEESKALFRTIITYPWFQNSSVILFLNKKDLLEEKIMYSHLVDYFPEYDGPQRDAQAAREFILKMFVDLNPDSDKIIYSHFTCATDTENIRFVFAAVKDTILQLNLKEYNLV
Protocol: as §5, §6, §7, §8, §9, §10

Gαs = Gαs (Homo sapiens, UniProt P63092); experiment: as above; type: binding; settings: antibody-d2 10 nM, 20 h
Chain of Gαs (P63092 whole entry): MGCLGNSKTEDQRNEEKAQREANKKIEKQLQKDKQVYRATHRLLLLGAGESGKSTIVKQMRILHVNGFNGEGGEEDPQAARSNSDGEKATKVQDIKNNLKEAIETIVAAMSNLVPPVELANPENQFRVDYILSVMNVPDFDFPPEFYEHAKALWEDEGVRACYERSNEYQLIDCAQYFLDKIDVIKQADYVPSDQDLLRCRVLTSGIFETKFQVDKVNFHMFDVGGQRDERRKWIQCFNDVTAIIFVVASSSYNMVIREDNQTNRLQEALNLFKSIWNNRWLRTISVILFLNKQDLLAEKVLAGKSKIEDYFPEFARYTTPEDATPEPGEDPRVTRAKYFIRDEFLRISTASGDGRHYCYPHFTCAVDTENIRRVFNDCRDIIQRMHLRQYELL
Protocol: as §5, §6, §7, §8, §9, §10

Gαz = biological target: T7, Gαz (Homo sapiens, UniProt P19086); experiment: as above; type: binding; settings: antibody-d2 10 nM, 20 h
T7 construct: host or cells: HEK293
T7 sequence (P19086 whole entry): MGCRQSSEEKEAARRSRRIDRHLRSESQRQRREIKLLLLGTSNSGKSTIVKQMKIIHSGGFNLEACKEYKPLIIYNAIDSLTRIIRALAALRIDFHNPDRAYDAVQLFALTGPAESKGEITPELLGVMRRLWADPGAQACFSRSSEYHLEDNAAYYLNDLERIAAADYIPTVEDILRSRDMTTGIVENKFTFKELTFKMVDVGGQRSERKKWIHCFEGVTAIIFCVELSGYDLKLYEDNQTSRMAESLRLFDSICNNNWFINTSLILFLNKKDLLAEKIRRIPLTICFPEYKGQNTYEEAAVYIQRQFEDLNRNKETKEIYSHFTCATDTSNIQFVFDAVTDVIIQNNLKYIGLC
Protocol: as §5, §6, §7, §8, §9, §10

G-proteins α = experiment: TR-FRET signal of labeled antibody combined with fluorescent GTP analog on HEK293 membranes expressing the DOR receptor; type: binding; settings: for FRET signal with GTPgN-octyl-C2-Europium cryptate: antibody labeled with d2 10 nM, GTP analog 6 nM, FIG. 11
Protocol: as §1, §2, §3

T1 sequence (P41143 whole entry): as the sequence (P41143 whole entry) above

C=CCN1C[C@H](C)N([C@@H](c2ccccc2)c2ccc(C(=O)N(CC)CC)cc2)C[C@H]1C [SNC162]
activation of the DOR receptors overexpressed in the membranes (DOR receptors): caused activation of the DOR receptors

Oc1ccc2c3c1O[C@H]1c4[nH]c5ccccc5c4C[C@@]4(O)[C@@H](C2)N(CC2CC2)CC[C@]314 [Naltrindole]
effect on activation by SNC162 (TR-FRET signal, HTRF ratio) (Delta Opioid GPCR): inhibited

B1: DSV36S: anti-G-protein alpha antibody; VH consists of SEQ ID NO: 14, VL of SEQ ID NO: 15; generated by Cisbio Bioassays (antibody, V domains shown)
VH: EVQLQQSGAELVRPGALVKLSCKASGFNIKDYYMHWVKQRPEQGLEWIGWIDPENGNTIYDPKFQGKASITADTSSNTAYLQLSSLTSEDTAVYYCTRGGGYYSDWYFDVWGAGTTVTVSS
VL: QIVLTQSPAIMSASPGEKVTMTCSASSSVSYMHWYQQKSGTSPKRWIYDTSKLASGVPARFSGSGSGTSYSLTISSMEAEDAATYYCQQWSSNPPITFGAGTKLELK
modifications: Variable domain of the heavy chain (VH); Light Chain Variable Domain (VL)
notes: anti-G-protein alpha antibody; generated by Cisbio Bioassays
signal and affinity depending on the state of G-protein αi1 (Gαi1 [1]; G-protein αi1 bound to a nucleotide (in particular GTPgS) versus empty): higher signal and higher affinity
capacity for binding the G-protein αi1 (HTRF signal) (Gαi1 [1]; antibodies labeled with d2, in the presence and in the absence of nucleotide (GTPgS or GDP)): capable of binding the G-protein αi1
inhibition of the HTRF signal obtained with antibody SC13533-d2 (Gαi1 [2]): not capable of inhibiting
inhibition of the HTRF signal obtained with antibody DSV36S-d2 (Gαi1 [3]): completely inhibited
HTRF signal with anti-Twin-Strep-tag-Lumi4 Tb (Gα12): did not give an HTRF signal
HTRF signal with anti-Twin-Strep-tag-Lumi4 Tb (Gα13): did not give an HTRF signal
HTRF signal with anti-Twin-Strep-tag-Lumi4 Tb (Gαi1 [4]): positive HTRF signal
HTRF signal with anti-Twin-Strep-tag-Lumi4 Tb (Gαi2): positive HTRF signal
HTRF signal with anti-Twin-Strep-tag-Lumi4 Tb (Gαi3): positive HTRF signal
HTRF signal with anti-Twin-Strep-tag-Lumi4 Tb (Gαo): positive HTRF signal
HTRF signal with anti-Twin-Strep-tag-Lumi4 Tb (Gαq): did not give an HTRF signal
HTRF signal with anti-Twin-Strep-tag-Lumi4 Tb (Gαs): did not give an HTRF signal
HTRF signal with anti-Twin-Strep-tag-Lumi4 Tb (Gαz): positive HTRF signal
FRET signal with GTPgN-octyl-C2-Europium cryptate (G-proteins α; condition buffer (absence of SNC162)): moderate but significant FRET signal
FRET signal with GTPgN-octyl-C2-Europium cryptate (G-proteins α; on adding SNC162 10 μM): increase of this FRET signal
FRET signal with Europium GTPgN-octyl-C2-cryptate (G-proteins α; unactivated membrane preparations, antibodies labeled with d2, FIG. 12): increase of the FRET signal
